Source: paper PMC9377591

Key:
[1] = target: V5-tagged Steppke (Step-V5-His) (Drosophila); assay: co-IP; FLAG-tagged Jub constructs co-expressed with a V5-tagged partner in Drosophila S2 cells; lysis and washes in RIPA buffer (140 mM NaCl, 10 mM Tris-HCl pH 8.0, 1 mM EDTA, 1.0% Triton X-100, 0.1% SDS, 0.1% sodium deoxycholate); precipitated with anti-V5 agarose beads, blotted with anti-FLAG; band intensity normalised to full length Jub
[2] = target: N2 domain of α-catenin, tagged with V5 (Drosophila) (UniProt P35220); assay: as above
UniProt P35220, sequence (P35220 whole entry, the tested form may be a part): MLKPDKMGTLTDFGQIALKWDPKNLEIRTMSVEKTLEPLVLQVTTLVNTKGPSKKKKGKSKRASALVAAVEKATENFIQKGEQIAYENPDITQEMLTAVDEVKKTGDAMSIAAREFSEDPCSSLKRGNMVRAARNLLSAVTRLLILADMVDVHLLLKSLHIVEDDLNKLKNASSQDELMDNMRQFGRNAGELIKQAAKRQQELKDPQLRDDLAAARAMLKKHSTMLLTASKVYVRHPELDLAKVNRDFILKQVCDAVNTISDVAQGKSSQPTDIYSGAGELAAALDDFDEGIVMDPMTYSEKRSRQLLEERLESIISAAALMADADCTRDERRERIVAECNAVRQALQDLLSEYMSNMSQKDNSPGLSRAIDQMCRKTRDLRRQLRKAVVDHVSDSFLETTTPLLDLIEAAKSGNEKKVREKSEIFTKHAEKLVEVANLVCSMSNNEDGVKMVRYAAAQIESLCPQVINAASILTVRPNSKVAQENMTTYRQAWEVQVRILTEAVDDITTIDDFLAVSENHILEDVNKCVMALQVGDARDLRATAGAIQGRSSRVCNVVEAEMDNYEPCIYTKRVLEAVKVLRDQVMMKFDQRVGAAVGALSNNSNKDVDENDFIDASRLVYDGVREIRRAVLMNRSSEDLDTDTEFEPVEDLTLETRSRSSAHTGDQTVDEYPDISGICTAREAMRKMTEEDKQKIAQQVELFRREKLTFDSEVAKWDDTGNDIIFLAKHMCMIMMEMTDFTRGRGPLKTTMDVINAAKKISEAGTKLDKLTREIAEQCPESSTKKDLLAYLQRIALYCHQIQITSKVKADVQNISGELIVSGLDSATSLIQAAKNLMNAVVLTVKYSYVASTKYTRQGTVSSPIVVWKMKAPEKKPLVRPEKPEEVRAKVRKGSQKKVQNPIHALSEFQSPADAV

Row | Substance | co-precipitation relative to full length Jub (% of full length) [1] | co-immunoprecipitation relative to full length Jub (% of full length) [2]
1 | Jub preLIM+LIM2 (1-505, 571-623, and 693-718), FLAG-tagged (from UniProt Q9VY77 1-505; Q9VY77 571-623; Q9VY77 693-718) (domain or fragment) | > 64 | –
2 | Jub preLIM+LIM3 (1-505 and 631-718), FLAG-tagged (from UniProt Q9VY77 1-505; Q9VY77 631-718) (domain or fragment) | 30 | –
3 | Jub preLIM+LIM13 (1-570 and 631-718), FLAG-tagged (from UniProt Q9VY77 1-570; Q9VY77 631-718) (domain or fragment) | > 64 | 50

More lines, now with the values ahead:

Row | co-precipitation relative to full length Jub (% of full length) [1] | co-immunoprecipitation relative to full length Jub (% of full length) [2] | Substance
4 | 30 | – | Jub preLIM+LIM1 (1-559 and 693-718), FLAG-tagged (from UniProt Q9VY77 1-559; Q9VY77 693-718) (domain or fragment)
5 | > 64 | 170 | Jub preLIM+LIM12 (1-623 and 693-718), FLAG-tagged (from UniProt Q9VY77 1-623; Q9VY77 693-718) (domain or fragment)
6 | > 64 | 780 | Jub preLIM+LIM23 (1-505, 571-718), FLAG-tagged (from UniProt Q9VY77 1-505; Q9VY77 571-718) (domain or fragment)
7 | – | 24 | Jub-preLIM (1-505), FLAG-tagged (from UniProt Q9VY77 1-505) (domain or fragment)
